The values that follow come from patent publication US20060040881.

In the data set the test system is Coagulation factor IX/IXa (Macaca fascicularis). Put plainly: inhibition. The note with it: guggaCUaUaCCgCgUaaUgCuGcCUccacT; lower case 2'-OMe, upper case C/U 2'-F, upper case A/G 2'-OH, 3' idT; concentration inhibiting about 90% of plasma FIX activity (APTT 1.6-fold); >95% at 10-12 ug/mL; cynomolgus plasma; text cites Apt39 as SEQ ID NO:88.

As to GUGGACUAUACCGCGUAAUGCUGCCUCCAC [Apt39], the activity was found to be 6 µg/mL.
